In article doi:10.1101/2023.10.12.561995 (bioRxiv, 2023):

Key:
[1] = biological target: T1, SARS-CoV-2 RBD (wildtype), residues 319-541 of S-protein (SARS-CoV-2 wildtype, UniProt P0DTC2); test: cell-based or functional assay
[2] = biological target: T1, SARS-CoV-2 RBD (wildtype), residues …; test: BLI

B1: R1-26 (mAb, human IgG1) (antibody, V domains shown)
VH: EVQLVESGGGLVQPGGSLRLSCAASGFTFSSYWMSWVRQAPGKGLEWVANIKQDGSEKYYVDSVKGRFTISRDNAKNSLYLQMNSLRAEDTAVYYCARGQLGPWVGVDYWGQGTLVTVSS
VL: NFMLTQPHSVSESPGKTVTISCTGSSGSIASNYVQWYQQRPGSAPTTVIYEDNQRPSGVPDRFSGSIDSSSNSASLTISGLKTEDEADYYCQSYDSSNWVFGGGTQLTVL
neutralisation of a pseudovirus displaying WT SARS-CoV-2 S-protein, IC50 [1]: 2.7 nM
Kd [2]: 3.8 nM
